Data reported in PMC10798645.

How the values were obtained:
[1] = molecular target: SARS-CoV-2 Wuhan-1 Spike (S), C-terminal 6xHis (pcDNA5) (UniProt P0DTC2); conditions: parent: est. 1.0; read off a plot
[2] = molecular target: SARS-CoV-2 Omicron (BA.1) Spike (pCAGGS-SARS-CoV-2 BA.1 Spike) (UniProt P0DTC2); conditions: parent: est. 1.0; read off a plot

“HA-tagged full-length BST2 (pcDNA5) (from UniProt Q10589) EC2Ala” gave a ratio to parent [1] of 0.74 and a ratio to parent [2] of 1.
